Results on two molecules are retold here after US20260242515A1 (DUALITY BIOLOGICS SHANGHAI, published 2026).

Test [1] deals with T1, Monkey ADAM9 protein (ACRO, Cat. No. AD9-C52H7) (cynomolgus monkey, UniProt A0A2K5X4X8 29-697).
T1 construct: Bought protein; also called cynomolgus ADAM9 protein; monkey ADAM9 antigen
T1 sequence: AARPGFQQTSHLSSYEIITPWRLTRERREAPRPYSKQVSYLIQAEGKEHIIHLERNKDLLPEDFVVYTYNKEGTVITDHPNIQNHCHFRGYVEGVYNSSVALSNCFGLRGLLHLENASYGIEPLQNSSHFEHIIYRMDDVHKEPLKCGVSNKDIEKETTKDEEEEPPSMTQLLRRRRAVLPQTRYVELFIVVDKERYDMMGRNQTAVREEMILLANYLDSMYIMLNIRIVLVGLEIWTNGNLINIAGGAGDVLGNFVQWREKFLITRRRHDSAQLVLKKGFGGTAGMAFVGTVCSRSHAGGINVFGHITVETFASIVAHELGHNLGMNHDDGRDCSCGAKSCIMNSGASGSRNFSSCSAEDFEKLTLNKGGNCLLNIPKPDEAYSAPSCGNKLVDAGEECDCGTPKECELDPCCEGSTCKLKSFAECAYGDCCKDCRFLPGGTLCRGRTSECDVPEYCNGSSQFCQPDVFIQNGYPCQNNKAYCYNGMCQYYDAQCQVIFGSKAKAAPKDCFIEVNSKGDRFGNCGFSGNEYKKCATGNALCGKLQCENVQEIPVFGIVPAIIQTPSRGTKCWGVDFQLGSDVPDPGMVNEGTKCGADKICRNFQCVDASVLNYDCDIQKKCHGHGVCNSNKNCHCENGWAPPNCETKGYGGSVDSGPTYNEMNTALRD
Nature of the test: SPR (Biacore 8K), antibody captured by anti-human Fc on CM5, monkey ADAM9 as analyte. Here is the method:
(§1) Chip preparation: The mouse anti-human IgG (Fc) antibody (Cat. No. 29234600, Cytiva) was diluted to 25 μg/mL in immobilization buffer (10 mM sodium acetate, pH 5.0), specifically by adding 950 μL of the immobilization buffer to 50 μL of the mouse anti-human IgG (Fc) antibody. The dilution was used for immobilization in eight channels. First, the surface of the CM5 chip was activated with 400 mM EDC and 100 mM NHS at a flow rate of 10 μL/min for 420 seconds. Then, 25 μg/mL of the mouse anti-human IgG (Fc) antibody was injected into the test channels at a flow rate of 10 μL/min for approximately 360 seconds, with the level of immobilization at approximately 7000 to 14000 RU. Finally, the chip was blocked with 1 M ethanolamine at a flow rate of 10 μL/min for 420 seconds. The reference channels underwent the same procedures as the test channels.
(§2) Ligand capture: Antibodies Ab10, Ab15, Ab16, and hMAB-A (2I.2) were diluted to 4 μg/mL in running buffer (containing 10 mM N-(2-hydroxyethyl)piperazine-N-2-ethanesulfonic acid (HEPES), 150 mM sodium chloride (NaCl), 3 mM ethylenediaminetetraacetic acid (EDTA), 0.005% Tween-20, pH adjusted to 7.4) and injected into the test channels for human IgG (Fc) capture at a flow rate of 10 μL/min at approximately 200 RU. No ligand capture was performed in the reference channels.
(§3) Analyte multi-cycle analysis: Human and cynomolgus ADAM9 proteins (human ADAM9 protein purchased from ACRO, Cat. No. AD9-H52H7; monkey ADAM9 protein purchased from ACRO, Cat. No. AD9-C52H7) were diluted 2-fold in running buffer (Table 10). The diluted human or cynomolgus ADAM9 protein was sequentially injected into the test channels and the reference channels at a flow rate of 30 μL/min, with corresponding association and dissociation times. Both the association and dissociation steps were performed in the running buffer. After each concentration analysis, the chip was regenerated with 3 M magnesium chloride at a flow rate of 20 μL/min for 30 seconds to wash away the ligand and any undissociated analyte. For the next concentration analysis, the test channels required re-capture of the same amount of ligand.

The target in test [2] is T2, Human ADAM9 protein (ACROBiosystems, Cat. No. AD9-H52H7) (human, UniProt Q13443 29-697).
T2 construct: Bought protein; also called Human ADAM-His protein; human ADAM9 antigen; not shown: His tag
T2 sequence (looked up): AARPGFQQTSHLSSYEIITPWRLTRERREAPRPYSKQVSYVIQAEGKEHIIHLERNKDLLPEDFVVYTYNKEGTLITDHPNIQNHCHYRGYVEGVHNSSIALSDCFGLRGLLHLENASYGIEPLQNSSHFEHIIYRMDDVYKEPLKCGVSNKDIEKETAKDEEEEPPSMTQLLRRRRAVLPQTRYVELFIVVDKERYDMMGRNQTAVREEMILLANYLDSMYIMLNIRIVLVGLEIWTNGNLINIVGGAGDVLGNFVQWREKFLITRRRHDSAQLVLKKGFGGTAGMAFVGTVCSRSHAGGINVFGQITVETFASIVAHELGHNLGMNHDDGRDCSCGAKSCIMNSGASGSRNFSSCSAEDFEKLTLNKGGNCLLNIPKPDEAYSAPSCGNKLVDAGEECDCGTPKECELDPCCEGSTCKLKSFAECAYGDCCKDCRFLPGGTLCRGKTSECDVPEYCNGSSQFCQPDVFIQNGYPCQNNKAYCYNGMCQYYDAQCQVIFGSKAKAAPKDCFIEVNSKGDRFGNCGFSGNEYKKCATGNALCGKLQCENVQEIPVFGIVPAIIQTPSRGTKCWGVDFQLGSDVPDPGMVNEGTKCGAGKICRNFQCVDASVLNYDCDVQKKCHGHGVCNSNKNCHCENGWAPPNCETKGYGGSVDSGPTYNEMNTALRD
Nature of the test: SPR (Biacore 8K), antibody captured by anti-human Fc on CM5, ADAM9 as analyte. Here is the method: as §1, §2, §3

B1: Ab15 (antibody, human IgG1, kappa, V domains shown)
VH: QVQLQQPGAELKKPGASVKVSCKASGFTFPLYWMNWVRQRPGRGLEWIGRIIPIFGHTKYNEKFKDRATMTADESSSTAYMELSSLTSEDSAVYYCARGGYYYYPREGFLDYWGQGTSVTVSS
VL: DIVMTQSPDSLSVSPGERATINCRSSQSVDYSGDSYMNWYQQKPGQSPRLLIYAASDRESGVPDRFSGSGSGTDFTLKISNVEEEDAATYYCQQSREDPFTFGQGTRVEIKR
notes: Humanized anti-ADAM9 IgG1/kappa; also called Ab15-V (variable regions)
With B1, in test [1], the Kd worked out at 9.47 nM, the koff turned out to be 0.000461 s⁻¹ and the kon was 48700 M⁻¹ s⁻¹. In test [2], this molecule gave an equilibrium dissociation constant (Kd) of 4.03 nM, a dissociation rate constant (koff) of 0.000697 s⁻¹ and a kon of 173000 M⁻¹ s⁻¹.

B2: Ab16 (antibody, human IgG1, kappa, V domains shown)
VH: QVQLQQPGTEVVKPGASVKLSCKASGFTFPLYWMHWVRQRPGRGLEWIGRIIPIFGHTKYNEKFKNKATLTADESSSTAYMELRSLTSDDSAVYYCARGGYYYYPREGFLDYWGQGTSVTVSS
VL: DIVMTQSPASLSVSPGERASISCRSSQSVDYSGDSYMNWYQQKPGQSPRLLIYAASDRESGVPDRFSGSGSGTDFTLKISRVEEEDAGTYYCQQSREDPFTFGQGTKVDIKR
notes: Humanized anti-ADAM9 IgG1/kappa; also called Ab16-V (variable regions)
In test [1], B2 returned a Kd of 8.61 nM, an off-rate (koff) of 0.000528 s⁻¹ and a kon of 61300 M⁻¹ s⁻¹. In test [2], this molecule showed a Kd of 5.01 nM, a koff of 0.000816 s⁻¹ and an association rate constant (kon) of 163000 M⁻¹ s⁻¹.
